The values below come from patent publication US20080107658A1 (AstraZeneca / MedImmune, published 2008).

B5: rat nerve growth factor (beta-NGF) (ligand, UniProt P25427 122-241, looked up)
chain: SSTHPVFHMGEFSVCDSVSVWVGDKTTATDIKGKEVTVLGEVNINNSVFKQYFFETKCRAPNPVESGCRGIDSKHWNSYCTTTHTFVKALTTDDKQAAWRFIRIDTACVCVLSRKAARRG
notes: mature; also called rat NGF; recombinant rat β-NGF

Like-named read-outs stand apart in the source and are kept apart here.

Test [1] addresses T1, human nerve growth factor (beta-NGF) (human, UniProt P01138 122-241). Briefly: cell-based or functional assay.
Test [2] deals with B5. The test is described as follows: cell-based or functional assay.
The target of test [3] is mouse nerve growth factor (mouse, UniProt P01139 122-241). The test is described as follows: cell-based or functional assay.
mouse nerve growth factor, sequence (P01139 122-241): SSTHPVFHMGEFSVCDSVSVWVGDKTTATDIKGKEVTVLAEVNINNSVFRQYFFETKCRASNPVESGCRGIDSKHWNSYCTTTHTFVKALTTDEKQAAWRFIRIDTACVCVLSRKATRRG
Test [4] addresses B5. Briefly: inhibition of rat 125I-NGF binding to coated p75 fusion protein. As to the method: (§1) Human TrkA and p75 receptor fusion proteins (R&D Systems) were diluted in Dulbecco's PBS (Gibco) to final concentrations of 10 nM and 0.6 nM, respectively. Maxisorp Nunc white 96 well microtitre plates (Nalge Nunc) were coated overnight at 4° C. with 100 μl/well of the diluted TrkA or p75 receptor solution. Plates were washed 3 times with PBS Tween 20, and then blocked with 200 μl/well 3% w/v bovine serum albumin (BSA) in PBS. Plates were washed after 1 h incubation at room temperature. Test antibodies were diluted to the desired concentration in assay buffer (0.5% w/v BSA and 0.05% v/v Tween 20 in PBS). […] Duplicate wells were prepared for each concentration of test sample. […] Bound radiolabel was quantified by addition of 100 μl/well Microscint 20 (Perkin Elmer) followed by counting using a Packard TopCount microplate liquid scintillation counter. Data were plotted and analysed using Graphpad Prism software to calculate IC₅₀ values for each experiment, and to derive the corresponding Ki according to the Cheng-Prusoff equation; Ki=IC₅₀/(1+D/Kd) Where: [0257]

The target in test [5] is B5. The test is described as follows: inhibition of rat 125I-NGF binding to coated TrkA fusion protein. As to the method: as §1
Test [6] deals with T1, human nerve growth factor (beta-NGF). Briefly: inhibition of human 125I-NGF binding to coated p75 fusion protein. As to the method:
as §1

Test [7] shares this target. The test is described as follows: inhibition of human 125I-NGF binding to coated TrkA fusion protein. As to the method:
as §1

For test [8] the target is unchanged. Briefly: cell-based or functional assay. The source holds these as a separate data set.
For test [9], the target named is B5. Briefly: cell-based or functional assay. The source holds these as a separate data set.
Test [10] has as its target T1, human nerve growth factor (beta-NGF). Briefly: cell-based or functional assay. This is another data set of the same source.
Test [11] addresses B5. The test is described as follows: cell-based or functional assay. This is another data set of the same source.
Test [12] concerns the target B5. The test is described as follows: rat 125I-NGF saturation binding to captured IgG4, one-site model. As to the method:
(§2) Briefly, flashplates (Perkin Elmer SMP200) were coated with 100 μl/well of 2.2 μg/ml goat anti-human IgG (Sigma-Aldrich, UK) in phosphate buffered saline (PBS) for 1 h. Wells were washed with PBS and then blocked for 1 h with 200 μl/well PBS containing 3% w/v bovine serum albumin (BSA; Sigma-Aldrich, UK). […] Following incubation for 1 h plates were washed with PBS.
(§3) Plates were incubated overnight, and wells counted for 1 min on a gamma counter (TopCount NXT, Perkin Elmer). Specific binding was calculated according to the formula ‘specific binding=total binding−non-specific binding’. Binding curves were plotted and binding parameters determined according to a one-site saturation binding model using Prism software (GraphPad Software Inc., USA).

For test [13], the target named is T1, human nerve growth factor (beta-NGF). Briefly: human 125I-NGF saturation binding to captured IgG4, one-site model. As to the method:
as §2, §3

In test [14] the target is B5. Briefly: inhibition of rat 125I-NGF binding to coated p75 fusion protein, Cheng-Prusoff, n=3. As to the method: (§4) Competition binding experiments were designed in order to calculate binding inhibition constant (Ki) values. […] Ki values were then derived using the Cheng-Prusoff equation.
as §1

The target in test [15] is B5. The test is described as follows: inhibition of rat 125I-NGF binding to coated TrkA fusion protein, Cheng-Prusoff, n=3. As to the method: as §4, §1
For test [16], the target named is T1, human nerve growth factor (beta-NGF). Briefly: inhibition of human 125I-NGF binding to coated p75 fusion protein, Cheng-Prusoff, n=3. As to the method: as §4, §1
The target is the same in test [17]. Briefly: inhibition of human 125I-NGF binding to coated TrkA fusion protein, Cheng-Prusoff, n=3. As to the method: as §4, §1
In test [18] the target is T2, human p75 receptor fusion protein (R&D Systems) (human, UniProt P08138 29-250).
T2 construct: bought fusion protein; also called p75 neurotrophin receptor
T2 sequence (looked up): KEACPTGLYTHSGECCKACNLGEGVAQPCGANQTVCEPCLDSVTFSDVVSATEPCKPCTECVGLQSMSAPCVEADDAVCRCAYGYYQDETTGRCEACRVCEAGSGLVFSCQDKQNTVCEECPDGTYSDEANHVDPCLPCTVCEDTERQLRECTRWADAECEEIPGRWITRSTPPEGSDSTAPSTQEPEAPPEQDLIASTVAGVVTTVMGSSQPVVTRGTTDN
Briefly: unlabelled NGF displacing rat 125I-NGF from coated p75 fusion protein. As to the method:
as §1

Test [19] addresses T3, human TrkA receptor extracellular domain fusion protein (R&D Systems) (human, UniProt P04629 33-423).
T3 construct: extracellular domain; bought fusion protein; also called TrkA receptor fusion protein
The test is described as follows: unlabelled NGF displacing rat 125I-NGF from coated TrkA fusion protein.

T1 sequence (P01138 122-241): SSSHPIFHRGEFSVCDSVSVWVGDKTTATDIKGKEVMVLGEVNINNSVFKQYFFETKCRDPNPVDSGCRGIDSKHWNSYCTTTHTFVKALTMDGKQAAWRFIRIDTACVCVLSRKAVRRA
T3 sequence (P04629 33-423): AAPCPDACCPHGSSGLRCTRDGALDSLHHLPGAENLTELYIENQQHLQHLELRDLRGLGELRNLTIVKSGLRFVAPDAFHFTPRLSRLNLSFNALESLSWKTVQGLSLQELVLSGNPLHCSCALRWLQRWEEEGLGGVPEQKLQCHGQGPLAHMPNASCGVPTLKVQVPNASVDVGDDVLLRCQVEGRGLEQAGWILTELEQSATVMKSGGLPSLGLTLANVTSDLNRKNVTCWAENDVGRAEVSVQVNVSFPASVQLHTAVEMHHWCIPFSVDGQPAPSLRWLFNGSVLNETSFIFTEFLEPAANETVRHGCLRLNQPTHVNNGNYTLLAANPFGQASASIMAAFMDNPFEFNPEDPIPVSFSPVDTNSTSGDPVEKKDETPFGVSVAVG

The IC50 is the concentration that gives 50% inhibition. A word on the Ki: it is a measure of affinity in units of concentration, obtained from inhibition or displacement. For “mouse anti-human NGF MAB256 (R&D Systems) (antibody)”, the IC50, FLIPR calcium mobilisation was determined as 0.76 nM in [1], 0.79 nM in test [2] and 1.4 nM in [3]. Further, the figures for the IC50, PC12 cell survival in test [1] and in [2] were 23 nM and 44 nM, respectively. The IC50, TF-1 cell proliferation in [1] amounted to 6 nM; in test [2], 5 nM; in test [3], 7 nM. Moreover, the IC50, calcium mobilisation assay in [1] turned out to be 0.76 nM; in [2], 0.79 nM. Moreover, the concentration for half-maximal inhibition (IC50) in test [4] worked out at 2.94 nM; in test [5], 1.48 nM; in test [6], 0.304 nM; in test [7], 1.94 nM. In addition, the Ki in test [4] is 2.67 nM; in [5], 1.38 nM; in [6] it was 0.252 nM; in test [7] it was 1.76 nM.

B1: 1083H4 human IgG4 (antibody, V domains shown)
VH: QMQLVQSGAEVKKTGSSVKVSCKASGYTFAYHYLHWVRQAPGQGLEWMGGIIPIFGTTNYAQRFQDRVTITADESTSTAYMELSSLRSEDTAVYYCASADYVWGSYRPDWYFDLWGRGTMVTVSS
VL: QSVLTQPPSASGTPGQRVTISCSGSSSNIGSNTVNWYQRLPGAAPQLLIYNNDQRPSGIPDRFSGSKSGTSGSLVISGLQSEDEADYYCASWDDSLNGRVFGGGTKLTVL
Consider B1, for which the results for the “IC50, calcium mobilisation assay” value in [8] and in test [9] were 30 nM and 61 nM, respectively. Also, the “IC50, FLIPR calcium mobilisation” value in test [10] is 30 nM; in test [11] it was 61 nM; in test [3], 54 nM. Also, the “IC50, PC12 cell survival” value in test [10] was ~1100 nM.

B2: 1021E5 human IgG4 (antibody, V domains shown)
VH: EVQLVQSGAEVKKPGSSVKVSCKASGGTFSTYGISWVRQAPGQGLEWIGGIIPIFDTGNSAQSFQGRVTITADESTSTAYMEVSSLRSDDTAVYYCASSSRIYDYAGGDHYYYDMDVWGQGTMVTVSS
VL: QAVLTQPSSVSTPPGQKVTISCSGSSSNIGNNYVSWYQQLPGTAPKLLIYDNNKRPSGIPDRFSGSKSGTSATLGITGLQTGDEADYYCGTWDSSLSAWVFGGGTKLTVL
Consider B2, for which the “IC50, calcium mobilisation assay” value in test [8] stood at 76 nM; in [9], 75 nM. Moreover, the “IC50, FLIPR calcium mobilisation” value in test [10] stood at 76 nM; in test [11], 75 nM; in test [3], 47 nM. In test [10], the “IC50, PC12 cell survival” value was ~1300 nM.

B3: G1152H5 human IgG4 (antibody, V domains shown)
VH: QVQLVQSGAEVKKPGSSVKVSCKASGGTFSTYGISWVRQAPGQGLEWMGGIIPIFDTGNSAQSFQGRVTITADESTSTAYMELSSLRSEDTAVYYCARSSRIYDMISSLQPYYDMDVWGQGTMVTVSS
VL: QSVLTQPPSVSAAPGQKVTISCSGSSSNIGNNYVSWYQQLPGTAPKLLIYDNNKRPSGIPDRFSGSKSGTSATLGITGLQTGDEADYYCGTWDSSLSAWVFGGGTKLTVL
notes: tested as whole human IgG4; also called germlined 1152H5
The term Kd denotes the free concentration of one partner at which half of the binding sites on the other are occupied at equilibrium, for simple one-to-one binding. For orientation: pKi means −log10 of the Ki, conventionally taken in molar units. Low readings indicate a high Ki, high ones a low Ki. On to B3, for which the “IC50, FLIPR calcium mobilisation” value in test [10] stood at 0.22 nM; in [11], 0.27 nM; in [3], 0.18 nM. The “IC50, PC12 cell survival” value was found to be 1.1 nM in test [10] and 7.3 nM in [11]. Further, the “IC50, TF-1 cell proliferation” value in [10] came out at 0.44 nM; in test [11], 1.44 nM; in test [3], 0.99 nM. In addition, the Kd in test [12] was 0.5 nM; in test [13], 0.37 nM. Further, the IC50 in test [4] came out at 0.781 nM; in [5] it was 0.538 nM; in [6], 0.348 nM; in test [7] it was 0.204 nM. Further, the Ki in test [4] stood at 0.708 nM; in [5] it was 0.499 nM; in [6] it was 0.288 nM; in test [7], 0.184 nM. For the same molecule, the negative-log Ki (pKi) in test [14] stood at 9.24; in test [15], 9.18; in test [16], 9.56; in test [17], 9.59.

B4: 1252A5 IgG4 (antibody, V domains shown)
VH: QVQLVQSGAEVKKPGSSVKVSCKASGGTFSTYGISWVRQAPGQGLEWMGGIIPIFDTGNSAQSFQGRVTITADESTSTAYMELSSLRSEDTAVYYCARSSRIYDLNPSLTAYYDMDVWGQGTMVTVSS
VL: QSVLTQPPSVSAAPGQKVTISCSGSSSNIGNNYVSWYQQLPGTAPKLLIYDNNKRPSGIPDRFSGSKSGTSATLGITGLQTGDEADYYCGTWDSSLSAWVFGGGTKLTVL
notes: tested as whole human IgG4; also called germlined 1133C11
In the case of B4, the entries for the “IC50, FLIPR calcium mobilisation” value in [10], in test [11] and in test [3] were 0.33 nM, 0.29 nM and 0.26 nM, respectively. The “IC50, PC12 cell survival” value in test [10] was 0.94 nM; in [11], 2.7 nM. The “IC50, TF-1 cell proliferation” value in [10] came out at 0.42 nM; in [11] it was 0.72 nM; in [3], 0.55 nM. The Kd was 0.44 nM in test [12] and 0.35 nM in test [13]. Further, the IC50 in test [4] came out at 0.302 nM; in [5], 0.151 nM; in test [6], 0.188 nM; in [7] it was 0.068 nM. The Ki was determined as 0.274 nM in test [4], 0.14 nM in test [5], 0.155 nM in test [6] and 0.061 nM in [7]. Further, the pKi in [14] amounted to 9.55; in test [15] it was 9.79; in [16], 9.85; in test [17], 10.3.

Consider B5, for which, in test [18], the IC50 was found to be 0.783 nM and the inhibitory constant (Ki) stood at 0.71 nM. In [19], this molecule had an IC50 of 1.3 nM and a Ki of 1.2 nM.
